How the values were obtained:
LovF = LovF (Aspergillus terreus, UniProt Q9Y7D5); experiment: FTMS of ACP-bound diketide; format: biochemical; details: with SAM and NADPH; covalent loading on ACP
[1] = substrate: CC[C@H](C)C(=O)SCCNC(=O)CCNC(=O)[C@H](O)C(C)(C)COP(=O)(O)OP(=O)(O)OC[C@H]1O[C@@H](n2cnc3c(N)ncnc32)[C@H](O)[C@@H]1OP(=O)(O)O; experiment: initial velocity of lovastatin formation by HPLC; format: biochemical, Aspergillus terreus; details: acyl donor; acyl acceptor monacolin J
[2] = substrate: CC[C@H](C)C(=O)SCCNC(C)=O; experiment: initial velocity of lovastatin formation by HPLC; format: biochemical, Aspergillus terreus; details: acyl donor; acyl acceptor monacolin J

Sequence of LovF (Q9Y7D5 whole entry): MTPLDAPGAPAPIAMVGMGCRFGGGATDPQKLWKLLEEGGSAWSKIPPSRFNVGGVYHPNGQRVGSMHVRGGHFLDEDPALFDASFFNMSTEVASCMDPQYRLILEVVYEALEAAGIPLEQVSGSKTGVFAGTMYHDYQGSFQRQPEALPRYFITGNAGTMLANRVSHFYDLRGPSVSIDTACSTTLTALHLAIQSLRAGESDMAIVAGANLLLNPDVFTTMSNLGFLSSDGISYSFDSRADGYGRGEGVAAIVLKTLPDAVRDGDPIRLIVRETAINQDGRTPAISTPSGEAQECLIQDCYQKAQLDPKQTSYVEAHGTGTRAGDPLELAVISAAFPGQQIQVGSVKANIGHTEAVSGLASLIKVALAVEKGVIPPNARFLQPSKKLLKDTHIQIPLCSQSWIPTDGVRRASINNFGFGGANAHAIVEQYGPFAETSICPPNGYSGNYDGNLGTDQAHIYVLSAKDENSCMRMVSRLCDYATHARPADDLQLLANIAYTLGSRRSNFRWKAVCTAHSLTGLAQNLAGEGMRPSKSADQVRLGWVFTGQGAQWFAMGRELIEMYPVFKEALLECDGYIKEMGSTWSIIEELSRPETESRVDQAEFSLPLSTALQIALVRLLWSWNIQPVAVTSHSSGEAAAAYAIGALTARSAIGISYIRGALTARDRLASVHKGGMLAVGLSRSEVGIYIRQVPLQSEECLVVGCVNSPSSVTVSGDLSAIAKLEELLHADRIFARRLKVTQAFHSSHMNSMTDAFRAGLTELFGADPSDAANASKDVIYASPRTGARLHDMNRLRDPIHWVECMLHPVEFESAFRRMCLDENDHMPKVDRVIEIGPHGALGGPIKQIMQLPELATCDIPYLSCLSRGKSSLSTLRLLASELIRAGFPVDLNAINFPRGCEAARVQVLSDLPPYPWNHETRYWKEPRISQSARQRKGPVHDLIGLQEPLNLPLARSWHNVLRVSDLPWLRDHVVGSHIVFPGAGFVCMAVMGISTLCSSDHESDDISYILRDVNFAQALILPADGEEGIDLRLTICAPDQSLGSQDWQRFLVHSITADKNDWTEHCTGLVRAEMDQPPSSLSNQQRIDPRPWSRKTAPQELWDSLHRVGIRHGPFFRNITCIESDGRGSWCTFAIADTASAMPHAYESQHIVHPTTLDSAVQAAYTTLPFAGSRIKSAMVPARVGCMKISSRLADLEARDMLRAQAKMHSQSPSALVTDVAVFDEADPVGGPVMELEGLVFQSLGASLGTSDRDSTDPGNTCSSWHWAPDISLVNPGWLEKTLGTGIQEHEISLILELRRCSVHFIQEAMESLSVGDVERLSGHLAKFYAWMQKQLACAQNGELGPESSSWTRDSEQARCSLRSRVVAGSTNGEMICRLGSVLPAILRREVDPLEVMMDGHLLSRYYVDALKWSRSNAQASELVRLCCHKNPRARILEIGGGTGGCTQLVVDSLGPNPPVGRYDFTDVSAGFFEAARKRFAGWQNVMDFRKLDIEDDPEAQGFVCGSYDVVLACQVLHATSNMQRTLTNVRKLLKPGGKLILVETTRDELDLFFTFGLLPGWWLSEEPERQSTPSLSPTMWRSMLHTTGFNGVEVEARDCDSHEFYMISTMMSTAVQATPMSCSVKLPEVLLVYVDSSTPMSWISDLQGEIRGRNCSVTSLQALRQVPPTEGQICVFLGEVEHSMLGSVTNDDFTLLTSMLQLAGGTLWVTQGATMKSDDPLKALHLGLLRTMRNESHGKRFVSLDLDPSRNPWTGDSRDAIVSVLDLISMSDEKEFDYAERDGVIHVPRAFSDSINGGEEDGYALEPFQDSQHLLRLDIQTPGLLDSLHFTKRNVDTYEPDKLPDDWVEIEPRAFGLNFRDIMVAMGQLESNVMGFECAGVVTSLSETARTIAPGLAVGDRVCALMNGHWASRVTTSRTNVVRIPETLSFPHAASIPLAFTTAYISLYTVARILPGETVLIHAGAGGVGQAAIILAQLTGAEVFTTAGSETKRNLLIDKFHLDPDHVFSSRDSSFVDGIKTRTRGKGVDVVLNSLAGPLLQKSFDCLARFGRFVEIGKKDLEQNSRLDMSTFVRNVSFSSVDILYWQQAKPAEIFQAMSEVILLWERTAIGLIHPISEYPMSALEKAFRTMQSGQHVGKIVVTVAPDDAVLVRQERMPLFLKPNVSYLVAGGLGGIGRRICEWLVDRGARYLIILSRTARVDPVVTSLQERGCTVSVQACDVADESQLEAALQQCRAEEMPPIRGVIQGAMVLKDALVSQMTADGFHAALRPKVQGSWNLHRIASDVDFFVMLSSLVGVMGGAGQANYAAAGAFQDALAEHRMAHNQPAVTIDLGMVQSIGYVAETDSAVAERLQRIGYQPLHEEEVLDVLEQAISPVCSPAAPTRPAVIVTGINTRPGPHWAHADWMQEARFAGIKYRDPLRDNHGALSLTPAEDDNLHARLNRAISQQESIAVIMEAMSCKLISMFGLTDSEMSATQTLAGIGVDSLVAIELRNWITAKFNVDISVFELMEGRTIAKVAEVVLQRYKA

CC(C)(COP(=O)(O)OP(=O)(O)OC[C@H]1O[C@@H](n2cnc3c(N)ncnc32)[C@H](O)[C@@H]1OP(=O)(O)O)[C@@H](O)C(=O)NCCC(=O)NCCSC(=O)CC(=O)O [malonyl-CoA]
FTMS of ACP-bound diketide; LC-MS of product released by LovD (LovF): we incubated LovF with malonyl-CoA, SAM and NADPH

B1: LovD (Aspergillus terreus) (protein)
chain: MGSIIDAAAAADPVVLMETAFRKAVKSRQIPGAVIMARDCSGNLNYTRCFGARTVRRDECNQLPPLQVDTPCRLASATKLLTTIMALQCMERGLVDLDETVDRLLPDLSAMPVLEGFDDAGNARLRERRGKITLRHLLTHTSGLSYVFLHPLLREYMAQGHLQSAEKFGIQSRLAPPAVNDPGAEWIYGANLDWAGKLVERATGLDLEQYLQENICAPLGITDMTFKLQQRPDMLARRADQTHRNSADGRLRYDDSVYFRADGEECFGGQGVFSGPGSYMKVLHSLLKRDGLLLQPQTVDLMFQPALEPRLEEQMNQHMDASPHINYGGPMPMVLRRSFGLGGIIALEDLDGENWRRKGSLTFGGGPNIVWQIDPKAGLCTLAFFQLEPWNDPVCRDLTRTFEHAIYAQYQQG
Km [1]: 2.5 ± 0.31 mM | kcat [1]: 0.00283 ± 0.000167 s⁻¹ | kcat/Km [1]: 1.15 M⁻¹ s⁻¹ | Km [2]: 9.2 ± 0.9 mM | kcat [2]: 0.0004 ± 1.67e-05 s⁻¹ | kcat/Km [2]: 0.0267 M⁻¹ s⁻¹

Reference: article PMC2878198 (Journal of the American Chemical Society, 2009)
